Substitutions are numbered along the chain they refer to.
Assays:
[1] = system: JY cells (LFA-1) binding to ICAM-R/IgG; assay: JY cell binding to plate-bound ICAM-R/IgG chimeras; format: cell-based, human; details: chimera coated at 10 μg/ml
Procedure: The binding of the lymphoblastoid cell line JY, which expresses LFA-1, to wild type ICAM-R/IgG chimera was examined in the presence and absence of LFA-1 specific antibodies or antibodies specific for either domain 1 or 2 of ICAM-R. ICAM-R chimeras were diluted to 10 μg/ml in 0.1M Na-carbonate/bicarbonate buffer pH 9.6 and used to coat triplicate wells (50 μl/well) of an Immulon 4 96-well plate (Dynatech) overnight at 4° C. Wells were washed three times in PBS and blocked with 1% BSA (in PBS) for 1 hour at 37° C. JY cells were labeled with the fluorescent dye Calcein (Moleculat Probes, Eugene, Oreg.) at 8 μg/ml at 37° C. in serum free RPMI for 20 minutes. Cells were washed with RPMI and resuspended in binding buffer (0.2% HSA in RPMI. Approximately 1×10^5 cells were added to each well containing the binding buffer with or without antibody (20 μg/ml of ICR-2.1, ICR-1.1, ICR-3.1, ICR-5.1, ICR-7.1, ICR-8.1, ICR-4.2, ICR-6.2, ICR-9.2, TS1/22 or 60.3) so that the final volume was 0.35 ml. Plates were incubated at 37° C. in the dark for 45 minutes and input fluorescence was quantitated with a fluorescence reader (Millipore) in a 96-well format. Unbound cells were removed by inverting the plate in 0.1% BSA in PBS for 20 minutes. Bound cells were quantitated by measuring the remaining fluorescence and presented as percent input minus background binding to wells coated with BSA alone.

[2] = system: Neutrophil binding to ICAM-R E37/A; assay: Neutrophil adhesion; format: cell-based, human
Procedure: (§1) Binding of HL-60 cells, neutrophils, and COS cells expressing. CD11b to the chimeric proteins was assayed as follows. The chimeric fusion proteins were diluted to 20 μg/ml in 0.1 M Na-carbonate/bicarbonate buffer (pH 9.6) and 50 μl was used to coat each well (in triplicate) of an Immulon 4 96-well plate (Dynatech). The plates were incubated overnight at 4° C. and washed three times in PBS. Wells were blocked with 1% human serum albumin (HSA) for one hour at 37° C. and washed three times in PBS. Two hundred μl of RPMI+0.25% HSA (with/without phorbol ester at 10 ng/ml, with/without blocking mAb at 15 μg/ml) was added to each well. ICAM-R antibodies used were ICR-1.1, ICR-8.1, ICR-4.2, ICR-6.2, ICR-9.2, and ICR-19.3. […] The adherent cells were quantified by staining with crystal violet (1% solution in 10% ethanol), washing with water and eluting the dye with 66% ethanol in water and measuring the absorbance at 570 nm. In each experiment percent cells bound was calculated using the absorbency values obtained from the CD18 mAb coated well as 100%. […]
This motif in domain 1 of ICAM-1 is essential for CD11a but not CD11b binding. Consequently, the effect of the alanine substitution at ICAM-R E37 (E37/A) on CD11b binding was evaluated.

[3] = system: Neutrophil binding to ICAM-R/His; assay: Neutrophil adhesion; format: cell-based, human
Procedure: as §1, with “ICR-19.3. CD11a blocking antibody TS1/22 (ATCC HB202) and CD11b blocking antibodies 44AACB (ATCC HB249) and LM2/1 (ATCC HB204) were also used as well as monoclonal antibodies IC/A4.1 to CD49d (α4) and 22F12C to CD18, both of which were generated using standard hybridoma techniques.” for “ICR-19.3.”

[4] = system: neutrophil binding to ICAM-2; assay: Neutrophil adhesion; format: cell-based, human
Procedure: as §1, with “ICR-19.3. CD11a blocking antibody TS1/22 (ATCC HB202) and CD11b blocking antibodies 44AACB (ATCC HB249) and LM2/1 (ATCC HB204) were also used as well as monoclonal antibodies IC/A4.1 to CD49d (α4) and 22F12C to CD18, both of which were generated using standard hybridoma techniques.” for “ICR-19.3.”

[5] = target: T1, LFA-1 transfected CHO cells (Homo sapiens, UniProt P05107+P20701); assay: Binding of transfected CHO cells to immobilized chimeras; format: cell-based; details: only following pretreatment with PMA
T1 construct: expressed in transfected cells; host or cells: CHO cells
Procedure: In replicate assays, soluble ICAM-1, ICAM-R, or VCAM-1 IgG1 chimeric fusion proteins were immobilized on plastic and the ability of αd/CD18 or LFA-1 transfected CHO cells (see co-owned, concurrently filed U.S. patent application Ser. No. 08/286,889 identified as attorney docket No. 32168) to bind the immobilized ligand was determined. Transfected cells were labeled internally with calcein, washed in binding buffer (RPMI with 1% BSA), and incubated in either buffer only (with or without 10 ng/ml PMA) or buffer with anti-CD18 at 10 μg/ml. Transfected cells were added to 96-well Immulon 4 microtiter plates previously coated with soluble ICAM-1/Ig, ICAM-R/Ig or VCAM-1/Ig chimera, or bovine serum albumin (BSA) as a negative control. Wells were blocked with 1% BSA in PBS prior to addition of labeled cells. After washing the plates by immersion in PBS with 0.1% BSA for 20 minutes, total fluorescence remaining in each well was measured using a Cytofluor 2300 (Millipore, Milford, Mass.).

[6] = target: T2, αd/CD18 transfected CHO cells (Homo sapiens, UniProt P05107+Q13349); assay: Flow cytometry binding of soluble chimeras; details: chimera 5 μg/ml
T2 construct: expressed in transfected cells; host or cells: CHO cells
Procedure: Binding of αd/CD18-transfected cells to soluble ICAM-1/IgG, ICAM-R/IgG, or VCAM-1/IgG chimeras was determined by flow cytometry. Approximately one million αd/CD18-transfected CHO cells (grown in spinner flasks for higher expression) per measurement were suspended in 100 μl binding buffer (RPMI and 1% BSA) with or without 10 μg/ml anti-CD18 antibody. After a 20 minute incubation at room temperature, the cells were washed in binding buffer and soluble ICAM-1/IgG or ICAM-R/IgG chimera was added to a final concentration of 5 μg/ml. Binding was allowed to proceed for 30 minute at 37° C., after which the cells were washed three times and resuspended in 100 μl binding buffer containing FITC-conjugated sheep anti-human IgG1 at a 1:100 dilution. After a 30 minute incubation, samples were washed three times and suspended in 200 μl binding buffer for analysis with a Becton Dickinson FACScan.

T1 sequence (P20701 26-1170): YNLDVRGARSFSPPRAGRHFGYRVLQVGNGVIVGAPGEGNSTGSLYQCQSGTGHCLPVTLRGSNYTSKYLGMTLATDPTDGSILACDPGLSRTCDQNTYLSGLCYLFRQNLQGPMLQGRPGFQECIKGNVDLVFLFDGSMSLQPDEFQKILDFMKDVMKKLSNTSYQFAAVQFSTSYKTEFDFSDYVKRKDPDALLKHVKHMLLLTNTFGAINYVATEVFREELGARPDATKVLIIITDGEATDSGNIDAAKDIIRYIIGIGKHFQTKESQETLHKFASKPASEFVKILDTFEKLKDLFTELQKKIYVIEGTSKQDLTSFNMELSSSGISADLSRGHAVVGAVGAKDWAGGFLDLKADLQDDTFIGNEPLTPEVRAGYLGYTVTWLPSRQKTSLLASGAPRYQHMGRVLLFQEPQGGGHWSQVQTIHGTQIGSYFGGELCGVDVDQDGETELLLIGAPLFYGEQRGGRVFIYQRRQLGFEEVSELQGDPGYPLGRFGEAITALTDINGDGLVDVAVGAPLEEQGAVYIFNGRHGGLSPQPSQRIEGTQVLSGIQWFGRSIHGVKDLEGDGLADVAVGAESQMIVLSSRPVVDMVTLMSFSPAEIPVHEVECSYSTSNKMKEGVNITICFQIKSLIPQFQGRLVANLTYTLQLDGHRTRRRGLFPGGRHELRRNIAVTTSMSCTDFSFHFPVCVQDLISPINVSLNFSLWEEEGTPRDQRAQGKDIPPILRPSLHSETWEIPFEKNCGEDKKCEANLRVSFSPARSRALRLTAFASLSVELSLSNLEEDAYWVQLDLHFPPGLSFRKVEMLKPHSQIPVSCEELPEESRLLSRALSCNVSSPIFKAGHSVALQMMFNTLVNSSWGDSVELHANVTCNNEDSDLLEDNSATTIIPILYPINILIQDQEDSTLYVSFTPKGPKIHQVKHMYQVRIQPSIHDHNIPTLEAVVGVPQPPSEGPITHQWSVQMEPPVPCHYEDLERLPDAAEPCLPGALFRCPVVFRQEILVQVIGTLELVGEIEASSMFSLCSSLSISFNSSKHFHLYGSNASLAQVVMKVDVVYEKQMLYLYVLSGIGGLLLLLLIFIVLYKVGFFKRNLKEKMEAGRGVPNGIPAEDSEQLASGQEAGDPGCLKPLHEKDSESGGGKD
T1 sequence (P05107 23-769): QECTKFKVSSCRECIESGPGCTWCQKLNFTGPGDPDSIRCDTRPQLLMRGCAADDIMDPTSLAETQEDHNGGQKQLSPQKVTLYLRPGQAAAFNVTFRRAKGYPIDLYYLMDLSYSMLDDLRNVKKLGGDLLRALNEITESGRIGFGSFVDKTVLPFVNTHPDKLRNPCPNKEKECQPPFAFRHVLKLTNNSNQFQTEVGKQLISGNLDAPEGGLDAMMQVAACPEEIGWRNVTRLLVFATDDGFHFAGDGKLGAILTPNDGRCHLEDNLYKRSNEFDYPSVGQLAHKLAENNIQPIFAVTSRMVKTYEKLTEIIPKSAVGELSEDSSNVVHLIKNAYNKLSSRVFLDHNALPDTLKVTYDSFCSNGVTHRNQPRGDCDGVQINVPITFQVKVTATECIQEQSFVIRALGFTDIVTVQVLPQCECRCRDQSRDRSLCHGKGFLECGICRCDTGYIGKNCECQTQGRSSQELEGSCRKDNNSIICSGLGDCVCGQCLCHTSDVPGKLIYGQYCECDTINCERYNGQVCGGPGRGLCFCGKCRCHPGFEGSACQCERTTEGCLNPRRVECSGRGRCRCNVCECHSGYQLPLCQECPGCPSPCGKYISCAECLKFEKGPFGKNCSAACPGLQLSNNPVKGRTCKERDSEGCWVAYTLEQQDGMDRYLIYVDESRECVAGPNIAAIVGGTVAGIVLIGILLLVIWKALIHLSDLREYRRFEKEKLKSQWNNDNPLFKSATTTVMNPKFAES
T2 sequence (Q13349 18-1161): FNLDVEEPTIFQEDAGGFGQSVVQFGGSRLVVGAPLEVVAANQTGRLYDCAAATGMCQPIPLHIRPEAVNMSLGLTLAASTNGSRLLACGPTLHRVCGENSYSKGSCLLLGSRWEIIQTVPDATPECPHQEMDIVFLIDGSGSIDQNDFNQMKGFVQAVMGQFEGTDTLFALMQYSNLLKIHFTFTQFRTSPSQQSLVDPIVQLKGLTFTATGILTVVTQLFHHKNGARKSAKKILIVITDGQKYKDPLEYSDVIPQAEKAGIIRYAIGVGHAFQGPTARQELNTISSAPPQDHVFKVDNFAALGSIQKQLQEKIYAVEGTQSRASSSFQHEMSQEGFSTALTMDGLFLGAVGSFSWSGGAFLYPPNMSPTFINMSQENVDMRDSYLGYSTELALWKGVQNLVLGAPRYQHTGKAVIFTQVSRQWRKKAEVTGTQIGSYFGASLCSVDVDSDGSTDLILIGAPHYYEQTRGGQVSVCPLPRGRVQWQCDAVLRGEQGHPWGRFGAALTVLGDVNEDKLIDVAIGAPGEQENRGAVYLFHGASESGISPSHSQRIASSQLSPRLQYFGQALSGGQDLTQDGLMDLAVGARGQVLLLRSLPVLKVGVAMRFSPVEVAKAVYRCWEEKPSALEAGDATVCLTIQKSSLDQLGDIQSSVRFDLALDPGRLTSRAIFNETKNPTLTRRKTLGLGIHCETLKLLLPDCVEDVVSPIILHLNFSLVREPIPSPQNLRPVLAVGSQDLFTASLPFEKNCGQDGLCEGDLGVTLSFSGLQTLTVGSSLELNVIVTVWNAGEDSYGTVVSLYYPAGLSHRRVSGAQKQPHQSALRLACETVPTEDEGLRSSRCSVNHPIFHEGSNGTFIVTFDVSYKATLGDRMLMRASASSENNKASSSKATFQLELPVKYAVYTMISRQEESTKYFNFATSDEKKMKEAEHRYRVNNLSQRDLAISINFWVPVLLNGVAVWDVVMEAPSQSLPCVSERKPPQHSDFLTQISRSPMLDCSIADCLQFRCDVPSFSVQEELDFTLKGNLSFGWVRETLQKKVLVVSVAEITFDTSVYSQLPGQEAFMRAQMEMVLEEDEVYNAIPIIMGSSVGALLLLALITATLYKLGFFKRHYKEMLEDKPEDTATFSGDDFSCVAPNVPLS
T2 sequence (P05107 23-769): as the sequence (P05107 23-769) above

B1: ICAM-R E37/A: ICAM-R/IgG chimera with alanine substitution at E37 (protein)
chain: QEFLLRVEPQNPVLSAGGSLFVNCSTDCPSSEKIALATSLSKELVASGMGWAAFNLSNVTGNSRILCSVYCNGSQITGSSNITVYGLPERVELAPLPPWQPVGQNFTLRCQVEGGSPRTSLTVVLLRWEEELSRQPAVEEPAEVTATVLASRDDHGAPFSCRTELDMQPQGLGLFVNTSAPRQLRTFVLPVTPPRLVAPRFLEVETSWPVDCTLDGLFPASEAQVYLALGDQMLNATVMNHGDTLTATATATARADQEGAREIVCNVTLGGERREARENLTVFSFLGPIVNLSEPTAHEGSTVTVSCMAGARVQVTLDGVPAAAPGQTAQLQLNATESDDGRSFFCSATLEVDGEFLHRNSSVQLRVLYGPKIDRATCPQHLKWKDKTRHVLQCQARGNPYPELRCLKEGSSREVPVGIPFFVNVTHNGTYQCQASSSRGKYTLVVVMDIEAFSSH
modifications: left off: a dimerising Fc or GST
B1 was tested, and the “LFA-1 mediated JY cell adhesion to variant ICAM-R/IgG chimera” value [1] was “completely abrogated adhesion of JY cells” and the “neutrophil binding relative to wild type ICAM-R” value [2] was “binding was reduced relative to wild type ICAM-R”.

B2: ICAM-R/His: histidine-tagged ICAM-R extracellular region fusion protein (protein)
chain: B1 chain with A37E
modifications: left off: small tags and cut ends
notes: histidine-tagged ICAM-R extracellular region fusion protein
In the case of B2, the “neutrophil adhesion to immobilized protein” value [3] is reported as “Neutrophils adhered to immobilized ICAM-R/His”.

B3: ICAM-2: chimeric ICAM-2/IgG fusion protein (protein)
chain: KVFEVHVRPKKLAVEPKGSLEVNCSTTCNQPEVGGLETSLDKILLDEQAQWKHYLVSNISHDTVLQCHFTCSGKQESMNSNVSVYQPPRQVILTLQPTLVAVGKSFTIECRVPTVEPLDSLTLFLFRGNETLHYETFGKAAPAPQEATATFNSTADREDGHRNFSCLAVLDLMSRGGNIFHKHSAPKMLEIYEPVSDSQ
modifications: left off: a dimerising Fc or GST
notes: chimeric ICAM-2/IgG fusion protein
For B3, the “neutrophil binding relative to ICAM-1” value [4] was “approximately 70%”.

B4: ICAM-1/IgG: soluble ICAM-1 IgG1 chimeric fusion protein (protein)
chain: QTSVSPSKVILPRGGSVLVTCSTSCDQPKLLGIETPLPKKELLLPGNNRKVYELSNVQEDSQPMCYSNCPDGQSTAKTFLTVYWTPERVELAPLPSWQPVGKNLTLRCQVEGGAPRANLTVVLLRGEKELKREPAVGEPAEVTTTVLVRRDHHGANFSCRTELDLRPQGLELFENTSAPYQLQTFVLPATPPQLVSPRVLEVDTQGTVVCSLDGLFPVSEAQVHLALGDQRLNPTVTYGNDSFSAKASVSVTAEDEGTQRLTCAVILGNQSQETLQTVTIYSFPAPNVILTKPEVSEGTEVTVKCEAHPRAKVTLNGVPAQPLGPRAQLLLKATPEDNGRSFSCSATLEVAGQLIHKNQTRELRVLYGPRLDERDCPGNWTWPENSQQTPMCQAWGNPLPELKCLKDGTFPLPIGESVTVTRDLEGTYLCRARSTQGEVTRKVTVNVLSPRYE
modifications: left off: a dimerising Fc or GST
notes: soluble ICAM-1 IgG1 chimeric fusion protein
For B4, the “increase in binding of LFA-1 transfected cells” value [5] was 2-3 fold and the “αd/CD18 transfectants binding soluble chimera” value [6] was “no binding”.
